The numbers were not newly measured in patent US20200069786A1, “COMPOSITION AND PROCESS FOR PREPARING VACCINE” (TREOS BIO ZRT., priority 2018, published 2020), which cites them from elsewhere.

Like-named read-outs stand apart in the source and are kept apart here.

In the series the test system is TSA.
Setting [1] is: TSA expression rate in MELANOMA
The mark [2] stands for this setting: TSA expression rate in PROSTATE cancer.

B1: PASD1 (protein, UniProt Q8IV76 1-773, looked up)
Circadian clock protein PASD1: MKMRGEKRRDKVNPKSSQRKLNWIPSFPTYDYFNQVTLQLLDGFMITLSTDGVIICVAENISSLLGHLPAEIVGKKLLSLLPDEEKDEVYQKIILKFPLLNSETHIEFCCHLKRGNVEHGDSSAYENVKFIVNVRDICNEFPVVFSGLFSSHLCADFAACVPQEDRLYLVGNVCILRTQLLQQLYTSKAVSDEAVLTQDSDEEPFVGELSSSQGQRGHTSMKAVYVEPAAAAAAAAISDDQIDIAEVEQYGPQENVHMFVDSDSTYCSSTVFLDTMPESPALSLQDFRGEPEVNPLYRADPVDLEFSVDQVDSVDQEGPMDQQDPENPVAPLDQAGLMDPVDPEDSVDLGAAGASAQPLQPSSPVAYDIISQELELMKKLKEQLEERTWLLHDAIQNQQNALELMMDHLQKQPNTLRHVVIPDLQSSEAVPKKQQKQHAGQVKRPLPHPKDVKCFCGLSLSNSLKNTGELQEPCVAFNQQQLVQQEQHLKEQQRQLREQLQQLREQRKVQKQKKMQEKKKLQEQKMQEKKKLQEQRRQKKKKLQERKKWQGQMLQKEPEEEQQKQQLQEQPLKHNVIVGNERVQICLQNPRDVSVPLCNHPVRFLQAQPIVPVQRAAEQQPSGFYQDENCGQQEDESQSFYPEAYQGPPVNQLPLIDTSNSEAISSSSIPQFPITSDSTISTLETPQDYIRLWQELSDSLGPVVQVNTWSCDEQGTLHGQPTYHQVQVSEVGVEGPPDPQAFQGPAAYQPDQMRSAEQTRLMPAEQRDSNKPC
As to B1, the “TSA Expression Rate (ER)” value (BRAIN) is recorded as 31%, the “TSA Expression Rate (ER)” value (LUNG) is 29% and the “TSA Expression Rate (ER)” value (THYROID) is reported as 25%. The “Expression Rate (ER) %” value is, setting by setting: (TSA expression rate in CRC) 44%; (TSA expression rate in Cervical cancer) 58%; (TSA expression rate in GASTRIC cancer) 44%; under setting [1], 44%; under setting [2], 29%.

B2: HAGE (protein, UniProt Q9NXZ2 1-648, looked up)
Probable ATP-dependent RNA …: MSHHGGAPKASTWVVASRRSSTVSRAPERRPAEELNRTGPEGYSVGRGGRWRGTSRPPEAVAAGHEELPLCFALKSHFVGAVIGRGGSKIKNIQSTTNTTIQIIQEQPESLVKIFGSKAMQTKAKAVIDNFVKKLEENYNSECGIDTAFQPSVGKDGSTDNNVVAGDRPLIDWDQIREEGLKWQKTKWADLPPIKKNFYKESTATSAMSKVEADSWRKENFNITWDDLKDGEKRPIPNPTCTFDDAFQCYPEVMENIKKAGFQKPTPIQSQAWPIVLQGIDLIGVAQTGTGKTLCYLMPGFIHLVLQPSLKGQRNRPGMLVLTPTRELALQVEGECCKYSYKGLRSVCVYGGGNRDEQIEELKKGVDIIIATPGRLNDLQMSNFVNLKNITYLVLDEADKMLDMGFEPQIMKILLDVRPDRQTVMTSATWPHSVHRLAQSYLKEPMIVYVGTLDLVAVSSVKQNIIVTTEEEKWSHMQTFLQSMSSTDKVIVFVSRKAVADHLSSDLILGNISVESLHGDREQRDREKALENFKTGKVRILIATDLASRGLDVHDVTHVYNFDFPRNIEEYVHRIGRTGRAGRTGVSITTLTRNDWRVASELINILERANQSIPEELVSMAERFKAHQQKREMERKMERPQGRPKKFH
Turning to B2, the “TSA Expression Rate (ER)” value by setting is: (BRAIN) 38%; (BREAST) 14%; (LUNG) 32%; (THYROID) 20%. In addition, the “Expression Rate (ER) %” value is, setting by setting: (TSA expression rate in BLADDER cancer) 24%; (TSA expression rate in CRC) 15%; (TSA expression rate in Esophageal) 27%; (TSA expression rate in HEAD and NECK) 20%; (TSA expression rate in Kidney) 6%; under setting [1], 17%. Also, the “Expression Rate (ER) %” value under setting [2] was 22%.
